These results are taken from the DeepSol protein solubility set.

A short description of the data set: soluble on expression in E. coli; label from the status in PepcDB or PDB records.
For “MGHHHHHHSHMIHIVQAKDKGQTARATKFLALDKCLPHRDFLQILEIEHDPSAPDYLEYDIEWLTILRATDDLINVTGRLWNMPESNGLHARWDYSATEEGMKEVLEKLNHDLKVPCNFSVTAACYDPSKPQTQMQLIHRINPQTTEFCAQLGIIDINVRLQKSKEEHHVCGEYEEQDDVESNDSGEDQSEYNTDTSALSSINPDEIMLDEEEDEDSIVSAHSGMNTPSVEPSDQASEFSASFSDVRILPGSMIVSSDDTVDSTIDREGKPGGTVESGNGEDLTKVPLKRLSDEHEPEQRKKIKRRNQAIYAAVDDDDDDAA”, the “soluble on expression in E. coli” value is reported as “not soluble”. To “MRNFTRTLEPEGITEMPQEGLRFVVQHHLARRDHYDLRLEWDGAMLSWAVPKGPSYNTWDKRLAVQVEDHPLEYRHFEGTIPKGEYGGGVVMLWDEGFWEPYVDVDGGLHEGMLKFVLKGRRLKGRWALVRMKGKAGDKKDNWLLLKEKDDYVQTADGISQFTTSLEHHHHHH” belongs “soluble”; to “MAHHHHHHMYEKTHVTTYPVMGCQISVGTTASRRSKGLNATRSGVDGALTSGTVDGRDPKSTGADNSVSLAYAVPAVKPVTYNDYRGFQVTMVNGTLAKINNICRWLDTALDKREKNGGWCMDVLAESVSSGKMETSFYCESIVQASHHVTHYCGQERANGVEYFAEVHSQQVFEKSAVSRTFDCPSAKFVYNSRFEEIPRQSDITTTQLNKETSDSGIPNGREAMIRYSPTSSEDGGRLNE”, “not soluble”; to “MSNAYEEYMRQMVIPMRQELVRSGFEELTTEEAVTEFMENTSGTTLVVVNSVCGCAAGLARPSAGQAVVRAEKQPDHLVTVFAGQDKDATAKMREYFGEIPPSSPSMALLKGKEVVHFIHRHEIEGATMDEIITNLEQAFEKNC”, “soluble”.

As to “MFSSSKLVNAVAQRLLDTIEQGRWVAGQMLPGQRELAEQMEISRPSLREAIMVLETLGVVRSLPGKGVMVLERSEPLREVAAPGEATMEDVLQLRYALEPFIVGIVAQSAGAAEISELRLLLLDLREAVEDGDPQALVEAYTAFHRRLVKLTSNPIFLSVSEQIGSALERSDNLVRRQPEYAEEILQEHDAILRAIRQHDSERASQAMRQHILNEGARLNIDLRLPQV”, the “soluble on expression in E. coli” value is reported as “not soluble”. To “AYDIISDIHGCYDEMTALIQKLGYTIKNGVPVHEEGRVLVFAGDLTDRGPKSIEVIRFVAGAYEKGAVRYVPGNHCNKLYRYLKGNPVKVMHGLETTAAELEELSKDEKKSVSEQFMKLYETAPLYDILHNGELVVAHAGIRADDIGKYTRRVKDFVLYGDVTGETYPDGRPIRRDWAAAYNGKAWVVYGHTPVKEPRKVNRTINIDTGCVFGNQLTGFRFPEIETVSVPSSLPYDESRFRP” belongs “not soluble”; to “MGHHHHHHSHSSVTIGRFQSVRYDVNLEKAKELGIPVVRRITGGGSVFHDEYGEITYSVVISEDYHPMLKNIQDSYRFLAGPLVDALKDLGIEAEFSGLNDIVVRGKKISGSAQTRRRGIILQHGTLMYATRLEI”, “not soluble”. “DDLPYRFGLGKADITGEAAEVGMMGYSSLEQKTAGIHMRQWARAFVIEEAASGRRLVYVNTDLGMIFQAVHLKVLARLKAKYPGVYDENNVMLAATHTHSGPGGFSHYAMYNLSVLGFQEKTFNAIVDGIVRSIERAQARLQPGRLFYGSGELRNASRNRSLLSHLKNPDIAGYEDGIDPQMSVLSFVDANGELAGAISWFPVHSTSMTNANHLISPDNKGYASYHWEHDVSRKSGFVAAFAQTNAGNLSPNLNLKPGSGPFDNEFDNTREIGLRQFAKAYEIAGQAQEEVLGELDSRFRFVDFTRLPIRPEFTDGQPRQLCTAAIGTSLAAGSTEDGPGPLGLEEGNNPFLSALGGLLTGVPPQELVQCQAEKTILADTGNKKPYPWTPTVLPIQMFRIGQLELLGAPAEFTVMAGVRIRRAVQAASEAAGIRHVVFNGYANAYASYVTTREEYAAQEYEGGSTLYGPWTQAAYQQLFVDMAVALRERLPVETSAIAPDLSCCQMNFQTGVVADDPYIGKSFGDVLQQPRESYRIGDKVTVAFVTGHPKNDLRTEKTFLEVVNIGKDGKQTPVTVATDNDWDTQYRWERVGISASKATISWSIPPGTEPGHYYIRHYGNAKNFWTQKISEIGGSTRSFEVLGTTP”: the “soluble on expression in E. coli” value is “soluble”. Take “MGSDKIHHHHHHMSVPTTMFRLTGRDYPPAKLSHASLIIIDAQKEYLSGPLKLSGMDEAVANIARLLDAARKSGRPIIHVRHLGTVGGRFDPQGPAGQFIPGLEPLEGEIVIEKRMPNAFKNTKLHETLQELGHLDLIVCGFMSHSSVSTTVRRAKDYGYRCTLVEDASATRDLAFKDGVIPAAQIHQCEMAVMADNFACVAPTASLI”: the “soluble on expression in E. coli” value is listed as “not soluble”. In the case of “MGSDKIHHHHHHMKYEKIAFFRFFGRLNDFFRNSERIKTHRFTGFQTVKDRIEALGVPHVEVSLITLNGKPVGFDHMVEDGELFFVYPEFQNIEIPEDWLVTPRYIGEPRFVLDIHLGKLARLLRMLGFEAVFGEESDEKLCWMAVKKKAILLSRDTGLLKRKELVFGYYVRNTDPKEQLVEVVERYDLKKWMKPFTRCIECGVELEEVPKEAVKNRVPPKVYGFFNEFARCPVCGRIYWKGSHYDHMVEFIKSNINKG”, the “soluble on expression in E. coli” value is “not soluble”.

Consider “MKRCLDKGKTMDALKHALQMLNEMRTAELSPKFYYRLYMDSMHELQCLEVNLVQEYAQEPAKLGNLYECVQYASAIIPRLYLLVTIGGVFIKCGLGSRKEILKDLVEMCRGVQHPLRGLFLRNYLMQCTRSVLPDFPETEEMLVAHNDNLSKGTPKLKPRDGTVDDTIDFVLINFAEMNKLWVRMQHQGPSKEKEKREKDRMELRILVGTNLVRLAQLEALTEEMYVKDVLPSILEQIVSCRDPISQEYLMECVIQVFADDFHLATLTEFLNACGQLQQDVNIKILLIALVDRLALYTTSYNEGQPAPTKMQLFEIFSEQATTLIKNRPDMPLDDIVALHVSLVSLAVKCYPDRQDYANMTFQGLRQVIEEKGVTDIEAFGKVGRELTKLLNIPIDEYKNVLRLSQLPEYIKVMNYFDYRGQCNIASYMIQNMLEEETVFRNQDDVDSAFSLISSLLKDQEKQSSDSHETEEFADEQNLVARLLHLIRADDVDSQFLLLNSARKTLGEGGRHRLRYTLPPIIFELYRLVLQFSDMKDEDDKWDAKIRKMFVCAMGTIGALVSTAELAELPMKLYLNGAITADRVPFEDNHTVVYEFVSKALSILEDDVVDSRDRVRCLHLTVGTLLKTTHLPEENWQPLANQTVLAAAKMFKKPDQVRSLVTVAALYWHGQTLETNGEKMKNGKKVVDILRKAAKIARECLEPLVQQQLFIQLLSAYTYYYEDNCSEVNVDHIEELIARTQDNAVQLDVSAEADSLEKQLGEAIRRLQLAKLDVAAAQATTIRSEPELPQPPS”, for which the “soluble on expression in E. coli” value was “soluble”. In the case of “MGSDKIHHHHHHVLADAVAWTARTLPVRPSVPVLAGMLLDADDVDGHQRLTLSSFDYEVSAQVSVDVDIDEPGRILVSGKLLAEIVRNLPPQTVEVSTDGAKVVVSCGSAKFTILTLPVEDYPTLPAMPALTGSVLSDTFAAAVSQVAVAAGRDDTLPMLTGVRIEIEGSTVTLVSTDRYRLAVRELTWTPEDPNVSAVALVPAKTLADTAKSLTGGAQISIALSTAENGGEGMIGFEGGGRRTTTRLLEGEFPKYRKLLPESFNSVAEVQKNEFIEAVKRVSLVAERNTPLRLSFTSDRLVLEAGTGEEAQAVEELSATLEGDDIQIAFNSTFLLDGLNAIESDVAHLQFTTSTKPAIITGKPADDGTASDYRYLIMPVRISN”, the “soluble on expression in E. coli” value is “not soluble”. As for “MTIHLSSLGQVYLVCGKTDMRQGIDSLAYLVKTHFELDPFSGQVFLFCGGRKDRFKALYWDGQGFWLLYKRFENGKLTWPSTEKDVKALTPEQVDWLMKGFSITPKINLSESRDFY”, the “soluble on expression in E. coli” value is listed as “not soluble”. On to “MAAADIARQLGEDCRTVPLAGHVGFDSLPDQLVNKSVSQGFCFNILCVGETGLGKSTLMDTLFNTKFEGEPATHTQPGVQLQSNTYDLQESNVGLKLTIVSTVGFGDQINKEDSYKPIVEFIDAQFEAYLQEELKIRRVLHSYHDSRIHVCLYFIAPTGHSLKSLDLVTMKKLDSKVNIIPVIAKSDAISKSELAKFKIKITSELVSNGVQIYQFPTDDESVSEINGTMNAHLPFAVCSTEEVKIGNKMMRARQYPWGTVQVENEAHCDFVKLREMLIRVNMEDLREQTHARHYELYRRCKLEEMGFKDTDPDSKPFSLQETYEAKRNEFLGELQKKEEEMRQMFVQRVKEKEAELKEAEKELHEKFDRLKKLHQEEKKKLEDKKKCLDEEMNAFKQRKAAAELLQSQGSQAGGSQTLKRDKEKKNNPWLCIE”, for which the “soluble on expression in E. coli” value was “soluble”.

On to “MSLKAYKTDGTHFRAITRQTLLGADEDERALGHQTRYFEIAPGGYSSLERHQHTHTVMILRGQGELILGDALHRIGRHDCIYIAPQTFHQFHASGDEPLGFLCIVDRERDRPREGHHHHHH”, for which the “soluble on expression in E. coli” value was “not soluble”.

For “MQRGIVWVVDDDSSIRWVLERALAGAGLTCTTFENGNEVLAALASKTPDVLLSDIRMPGMDGLALLKQIKQRHPMLPVIIMTAHSDLDAAVSAYQQGAFDYLPKPFDIDEAVALVERAISHYQE”, the “soluble on expression in E. coli” value is on record as “soluble”. For the sequence “MSLTTETRSLYSQLPAIDRLLRDSSFLSLRDTYGHTRVVELLRQMLDEAREVIRGSQTLPAWCENWAQEVDARLTKEAQSALRPVINLTGTVLHTNLGRALQAEAAVEAVAQAMRSPVTLEYDLDDAGRGHRDRALAQLLCRITGAEDACIVNNNAAAVLLMLAATASGKEVVVSRGELVEIGGAFRIPDVMRQAGCTLHEVGTTNRTHANDYRQAVNENTALLMKVHTSNYSIQGFTKAIDEAELVALGKELDVPVVTDLGSGSLVDLSQYGLPKEPMPQELIAAGVSLVSFSGDKLLGGPQAGIIVGKKEMIARLQSHPLKRALRADKMTLAALEATLRLYLHPEALSEKLPTLRLLTRSAEVIQIQAQRLQAPLAAHYGAEFAVQVMPCLSQIGSGSLPVDRLPSAALTFTPHDGRGSHLESLAARWRELPVPVIGRIYDGRLWLDLRCLEDEQRFLEMLLKEGGSHHHHHH”, the “soluble on expression in E. coli” value is given as “soluble”.

In the case of “MRQIQSIRLIDVLELAFGVGYKEETTSQFSSDQPSQVVLYRGEANTVRFAYTNQMSLMKDIRIALDGSDKSLTAQIVPGMGHVYEGFQTSARGIFTMSGVPESTVPVANPNVQTKYIRYFKVIDDMHNTMYKGTVFLVQPQAWKYTMKSVDQLPVDDLNHIGVAGIERMTTLIKNAGALLTTGGSGAFPDNIKVSINPKGRQATITYGDGSTDIIPPAVLWKKGSVKEPTEADQSVGTPTPGIPGKFKRDQSLNEHEAMVNVEPLSHVVKDNIKVIDEKSTGRFEPFRPNEDEKEKPASDVKVRPAEVGSWLEPATALPSVEMSAEDRLKS”, the “soluble on expression in E. coli” value is listed as “not soluble”. “MGSDKIHHHHHHMDHAIYTAMGGASQSLEKQAITANNLANASTPGFRAQLSALRAVPVNGLTLPTRTLVVASTPGADMTEGVMNYTGRAMDVALPKESWLAVQTANGGEAYTRNGNMEINADGQLTIQGRVVMGDGGPIDIPPQAQISISADGTISALNAGDPPNTIAQLGRLKLVKATGQEVERSDDGLFRLTQQAQQQRGNVLQNDPTVRIMPGVIEGSNVNTVDTMVDMIANARRFEMQMKVISSVDDNAQRANQILAMG”: the “soluble on expression in E. coli” value is reported as “not soluble”. On to “MGHHHHHHSHLCTNFFIFTGGPGSGKTAVLNELNTWGYLTVSEVARSIIQKQQADGGDAIHTGNRKAFRDLMLEQSIADYCKMQSEEKIVFFDRGIPDLYGYSKAFCGEASKEVNEAVGRFRYNKTVFIFPPWPEIYENDDERQQDYQEALQTYYAVKEGYFDCGYVLLEVPKCPIKDRANFIFQMISKNG”, for which the “soluble on expression in E. coli” value is on record as “not soluble”. As to “MSLKNARLHVINPDEVATSVLFRLLAPTGIESRHYPCAEDFLNQYQANGPACLLVDMLLPDWGPLRLLGELKRRQIHHPCIFMSYRCEEQTLMELLEQQAFAFIKKPLNQVKLTELIQVAMGQDQKEGHHHHHH”, the “soluble on expression in E. coli” value was “not soluble”.
